Reference: patent US20230038638A1, “COMPLEMENT FACTOR I-RELATED COMPOSITIONS AND METHODS” (published 2023)

Columns and labels:
human C4b (human) = biological target: T1, human C4b (human) (UniProt P0C0L4)
T1 sequence: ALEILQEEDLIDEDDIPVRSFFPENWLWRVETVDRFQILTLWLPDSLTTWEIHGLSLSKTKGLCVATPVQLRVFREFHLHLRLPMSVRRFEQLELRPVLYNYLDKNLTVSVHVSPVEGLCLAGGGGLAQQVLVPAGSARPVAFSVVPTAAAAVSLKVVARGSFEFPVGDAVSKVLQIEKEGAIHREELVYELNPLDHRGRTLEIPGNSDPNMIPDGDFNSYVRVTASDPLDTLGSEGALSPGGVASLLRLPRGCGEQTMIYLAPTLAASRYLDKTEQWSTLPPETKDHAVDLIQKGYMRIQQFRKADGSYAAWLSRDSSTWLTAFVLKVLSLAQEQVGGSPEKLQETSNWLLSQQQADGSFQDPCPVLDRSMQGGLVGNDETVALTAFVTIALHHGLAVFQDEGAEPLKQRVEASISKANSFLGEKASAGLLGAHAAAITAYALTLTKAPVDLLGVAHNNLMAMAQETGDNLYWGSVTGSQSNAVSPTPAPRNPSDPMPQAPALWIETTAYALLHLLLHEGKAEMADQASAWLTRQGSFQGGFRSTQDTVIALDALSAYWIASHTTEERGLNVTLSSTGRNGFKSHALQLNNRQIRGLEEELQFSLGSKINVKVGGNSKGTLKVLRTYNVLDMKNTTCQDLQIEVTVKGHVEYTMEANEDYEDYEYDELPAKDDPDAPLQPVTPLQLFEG

[1] = biological target: soluble human C3b (human) (UniProt P01024)

Substance	C4b Screen Ref Fold (fold of CFI-HSA wild type) (human C4b (human))	iC3b Screen Ref Fold (fold of CFI-HSA wild type) [1]	C4b Screen Ref Fold (fold of reference) (human C4b (human))	iC3b Screen Ref Fold (fold of reference) [1]
CFI-HSA variant N476Q; N518Q (enzyme)	0.15	1.28		
CFI-HSA variant N531E (enzyme)			3.96	0.82
CFI-HSA variant N531G; S507A (enzyme)	-0.07	-0.03		
CFI-HSA variant N531H (enzyme)			1.16	0.74
CFI-HSA variant N531I (enzyme)			0.36	0.24
CFI-HSA variant N531M; Y403F; K504Y; E457G; E461Q (enzyme)	3.46	0.7		
CFI-HSA variant N531P (enzyme)			0.08	-0.01
CFI-HSA variant N531R (enzyme)			0.58	0.75
CFI-HSA variant N531T (enzyme)			0.31	0.19
CFI-HSA variant N531V (enzyme)			0.75	0.57
CFI-HSA variant N531W (enzyme)			0.95	0.29
CFI-HSA variant N531Y (enzyme)			2.94	0.91
CFI-HSA variant P558G (enzyme)			0.4	1.21
CFI-HSA variant P558S (enzyme)			0.77	1.56
CFI-HSA variant P558S; F559L; I560V; Y563H (enzyme)			0.63	1.24
CFI-HSA variant P558S; S507A (enzyme)	0.08	-0.04		
CFI-HSA variant Q373G (enzyme)	0	0.02		
CFI-HSA variant Q409D (enzyme)			0.09	0.14
CFI-HSA variant Q409G (enzyme)			0.36	0.33
CFI-HSA variant Q409Y (enzyme)			0.29	-0.01
CFI-HSA variant R314A (enzyme)			1.83	0.85
CFI-HSA variant R388G (enzyme)	0.18	0.22		
CFI-HSA variant R462G (enzyme)	0.25	0		
CFI-HSA variant R557A; N531D; Y403F; K504Y; E457G; E461Q (enzyme)	3.51	0.42		
CFI-HSA variant R557A; N531M; Y403F; K504Y; E457G; E461L (enzyme)	3.18	0.46		
CFI-HSA variant R557A; N531M; Y403F; K504Y; E457G; E461T (enzyme)	3.31	0.4		
CFI-HSA variant R557A; N531M; Y403F; K504Y; E457G; E461V (enzyme)	3.17	0.46		

Substance	C4b Screen Ref Fold (fold of CFI-HSA wild type) (human C4b (human))	iC3b Screen Ref Fold (fold of CFI-HSA wild type) [1]	C4b Screen Ref Fold (fold of reference) (human C4b (human))	iC3b Screen Ref Fold (fold of reference) [1]
CFI-HSA variant R557A; N531M; Y403F; K504Y; E457N; E461L (enzyme)	2.29	0.28		
CFI-HSA variant R557A; N531M; Y403F; K504Y; E457N; E461Q (enzyme)	3.18	0.36		
CFI-HSA variant R557A; N531M; Y403F; K504Y; E457N; E461T (enzyme)	3.13	0.24		
CFI-HSA variant R557A; N531M; Y403F; K504Y; E457N; E461V (enzyme)	3.2	0.36		
CFI-HSA variant R557A; S507A (enzyme)	0.08	-0.02		
CFI-HSA variant T346H (enzyme)			1.81	0.67
CFI-HSA variant T346K (enzyme)			0.57	0.96
CFI-HSA variant T346K; K504D; E530K (enzyme)			-0.02	0.4
CFI-HSA variant T346R (enzyme)			0.54	0.95
CFI-HSA variant T377G; N422K; D425K; E457G; E461Q; E530F; N531G (enzyme)	3.74	0.87		
CFI-HSA variant T377G; S507A (enzyme)	0.05	-0.01		
CFI-HSA variant T377G; Y408M; N422K; E457G; E461Q; E530F; N531G (enzyme)	2.93	1.15		
CFI-HSA variant V390G (enzyme)			0.5	0.35
CFI-HSA variant V463G (enzyme)	0.08	0.09		
CFI-HSA variant W375G (enzyme)	0.08	-0.03		
CFI-HSA variant W381A (enzyme)			0.09	-0.01
CFI-HSA variant W381A; P384A (enzyme)			-0.05	-0.03
CFI-HSA variant W381A; ΔP384 (enzyme)			-0.05	0.01
CFI-HSA variant W381G; P384A; V390G (enzyme)			0.26	-0.01
CFI-HSA variant W381G; P384G; V390G (enzyme)			0.12	-0.02
CFI-HSA variant W381G; V390G (enzyme)			0.04	-0.01
CFI-HSA variant Y372G (enzyme)			0.08	0
CFI-HSA variant Y393G (enzyme)	-0.01	0.71		
CFI-HSA variant Y403F; D425K; E457G; N531G (enzyme)	3.85	0.22		
CFI-HSA variant Y408F; K504Y (enzyme)	1.67	0.97		
CFI-HSA variant Y408F; N531M (enzyme)	1.77	1.92		
CFI-HSA variant Y408F; S507A (enzyme)	0.07	-0.02		
